B1: W2S4 peptide (human CD11a-based) (peptide)
peptide: Ac-YLSGLCYLFRQNLQGPML-NH2
B2: leukotoxin (LtxA) of Aggregatibacter actinomycetemcomitans (natural protein)
chain: MATTTLPNTKQQAAQFANSVADRAKENIDAAKEQLQKALDKLGKTGKKLTLYIPKNYKKGNGLTALIKAAQKLGIEVYHEGKDGPALTNGILNTGKKLLGLTERGLTLFAPELDKWIQGNKHLSNSVGSTGNLTKAIDKVQSVLGTLQAFLNTAFSGMDLDALIKARQNGKNVTDVQLAKASLNLINELIGTISSITNNVDTFSKQLNKLGEALGQVKHFGSFGDKLKNLPKLGNLGKGLGALSGVLSAISAALLLANKDADTATKAAAAAELTNKVLGNIGKAITQYLIAQRAAAGLSTTGPVAGLIASVVSLAISPLSFLGIAKQFDRARMLEEYSKRFKKFGYNGDSLLGQFYKNTGIADAAITTINTVLSAIAAGVGAASAGSLVGAPIGLLVSAITSLISGILDASKQAVFEHIANQLADKIKAWENKYGKNYFENGYDARHSAFLEDSLKLFNELREKYKTENILSITQQGWDQRIGELAGITRNGDRIQSGKAYVDYLKKGEELAKHSDKFTKQILDPIKGNIDLSGIKGSTTLTFLNPLLTAGKEERKTRQSGKYEFITELKVKGRTDWKVKGVPNSNGVYDFSNLIQHAVTRDNKVLEARLIANLGAKDDYVFVGSGSTIVNAGDGYDVVDYSKGRTGALTIDGRNATKAGQYKVERDLSGTQVLQETVSKQETKRGKVTDLLEYRNYKLDYYYTNKGFKAHDELNSVEEIIGSTLRDKFYGSKFNDVFHGHDGDDLIYGYDGDDRLYGDNGNDEIHGGQGNDKLYGGAGNDRLFGEYGNNYLDGGEGDDHLEGGNGSDILRGGSGNDKLFGNQGDDLLDGGEGDDQLAGGEGNDIYVYRKEYGHHTITEHSGDKDKLSLANINLKDVSFERNGNDLLLKTNNRTAVTFKGWFSKPNSSAGLDEYQRKLLEYAPEKDRARLKRQFELQRGKVDKSLNNKVEEIIGKDGERITSQDIDNLFDKSGNKKTISPQELAGLIKNKGKSSSLMSSSRSSSMLTQKSGLSNDISRIISATSGFGSSGKALSASPLQTNNNFNSYANSLATTA

target: B2; assay: SPR

| Binder | Kd |
| --- | --- |
| Ac-LSRTCDQNT-NH2 [W2S3 peptide (human CD11a-based; identical in murine CD11a)] | ~10 nM |
| Ac-TGHCLP-NH2 [W1S4 peptide (human CD11a-based)] | ~10 nM |
| B1 | ~10 nM |
| Ac-TDGSILACDPG-NH2 [W2S2 peptide (human CD11a-based)] | ~10 nM |
| Ac-VTLRGSNYTSKYLGMTLATDP-NH2 [W2S1 peptide (human CD11a-based)] | ~10 nM |

Target: B1
Assay: SPR

| Binder | KD relative to the KD of LtxA for the other peptides |
| --- | --- |
| B2 | ~2 fold |
